In the nanobody polyreactivity screen of Harvey et al. (2022):

Assay: yeast display, Sf9 membrane polyspecificity reagent, FACS + sequencing; frameworks hold sequencing errors
How it was run: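 Nanobodies came from a synthetic yeast display library in Saccharomyces cerevisiae BJ5465, induced with galactose for 36–48 hours and stained for 1 hour at 4 °C with 10% biotinylated, detergent-solubilized Sf9 membrane reagent. Cells were enriched on streptavidin microbeads and then FACS-sorted, with low and high (top ~1%) gates set on anti-HA fluorescence for expression and streptavidin fluorescence for reagent binding. Each polyreactivity label reflects the gate a clone came from. Genes were amplified by colony PCR, sequenced by MiSeq 2 × 250 and filtered by CDR length.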

| Sequence | polyreactivity (PSR sort gate) |
| --- | --- |
| QVQLVESGGGLVQAGCSLRLSCAASGRSIAYNAMGWYRQAPGTERELVAAISWSGGSTYYADSVKGRFTISRDNAKNTVYLQMNSLIPEDTAVYYCAKRFAQYRYPYDYWGQGKQVTVSS | high polyreactivity |
| QVQLVESGGGLVQAGCSLRLSCAASGRTFGGYALGWYRQAPGKERELVAAISRGGNTYYADSVKGRFTISRDNAKNTVYLQMNSLKPEDTAVYYCNVARGNPVPPSEYWGQGTQVTVSS | low polyreactivity |
| QVQLVESGGGLVQAGCSLRLSCAASGRTGFNAMGWYRQAPGKERELVASIRSGGTSTYYADSVKGRFTISRDNAKNTVYLQMNSLKPEDTAVYYCYDYWGHGTQVTVSS | low polyreactivity |
| QVQLVESGGGLVQAGCSLRLSCAASGSIFRAYAMGWYRHAPGKERELVAGISGSGGSTYYADSVKGRFTISRDNAKNTVYLQMNSLKPQDTAVYYCAKALSTYQRTGCYDYWGQGTQVTVSS | high polyreactivity |
| QVQLVESGGGLVQAGCSLRLSCAASGSTFDNYAMGWYRQAPGKERELVAAISSSGTRTYYADSVKGRFTISRDNAKNTVYLQMNSLKPEDTAVYYCAAGGHYYSSPGYNYWGLGTQVTVSS | high polyreactivity |
| QVQLVESGGGLVQAGCSLRLSCAASGSTFFSNAMGWYRQAPGKFRELVAGITFSGGSTYYADSVKGRFTISRDYAKNTVFLQMNSLKPEDTAVYYCAASPPYKLVWWRRMDYWGQGTQVTVSS | low polyreactivity |
| QVQLVESGGGLVQAGCSLRLSCAASGSTFRYYPMGWYRQAPGKEREFVAAITWRDGSTYYADSVKGRFTISRDNAKNTVYLQMNSLKPEDTAVYYCAARNSHVGYYDEYYYWGQGTQVTVSS | low polyreactivity |
| QVQLVESGGGLVQAGCSLRLSCAASGSTLDGNAMGWYRQPPGKERELVAAISVSGGTTYYADSVKGRFTISRDNAKNNVYLQMNSLKREDTAVYYCSTEWRPRYYGTEPFDSWGQGTQVTVSS | high polyreactivity |
| QVQLVESGGGLVQAGCSLRLSCAASGYIFYIYAMGWYRQAPGKERELVAAITWSGDTTYYADSVKGRFTISRDNAKNTVYLQMNSLKPEDTAVYNCATYYYYPSWYLLYGEYNYWGQGTQVTVSS | low polyreactivity |
| QVQLVESGGGLVQAGCSLRLSCAATGRSFRRNTMGWYRQAPGKERELVAAISSSGSSTYYADSVKGRFTISRDNAKNTVFLQMNSLKPEDTAVYYCAARGRGQPFVRYDYWGQGTQVTVSS | high polyreactivity |
| QVQLVESGGGLVQAGCSLRLSCADSGLTFTFYAMGWYRQAPGKVRELVAAISTSGASTYYADSVKGRFTISRDNANNTVYLQMNSLKPEDTAVYYCAAEYSYSSYLWYDYWGQGTQVTVSS | high polyreactivity |
| QVQLVESGGGLVQAGCSLRLSCDASGFIFKVYAMGWYRQAPGKERELVASISFSGGRTYYADSVKGRFTISRDNAKNTFYLQMNSLKPEDSAVYYCNRSYVNKYYSWGQGTQVTVSS | high polyreactivity |
| QVQLVESGGGLVQAGCSLRLSCDASGSIFPGNAMGWYRQAPGKEREFVAAISWSGGSTNYADSVKGRFTISRDNAKNTVYLQMNSLKPEDTAVYFCAKRFVRRDPTTQLYGKAYEYWGQGTQVTVSS | high polyreactivity |
| QVQLVESGGGLVQAGCSLRLSCGASGSIFAYYDMGWYREAPGTEREVVAAITTRDDDTYYADSVKGRFTISRDTAKNPVYLQMNSLKPEDTAVYYCAAAWWDYGNGKYDYWGQGTQVTVSS | low polyreactivity |
| QVQLVESGGGLVQAGCSLRLSCSASGRIYYAMGWYRQADGKERELVATITRSGGRTYYADSVKGRFTISRDNAKITVYLQINSLKPEDTAVYYCAKQFGRPYVGSNSYCLTYDSWGEGTQVTVSS | low polyreactivity |
| QVQLVESGGGLVQAGCSLRLSSAASGTIFGYYTMGRYRQAPGKEREIVAAISRSGGSTYYADSVKGRFTISRDNAHNTGYLQMNSLKPEHTAVYYCNADVYWEYDYWGQGTQVTVSS | low polyreactivity |
| QVQLVESGGGLVQAGCSLRLSWAASGFTFAYYAMGWSRQAPGKERDLVASITSSGGSTYYADSVKGRFTISRDNAKNTVYLQMNSLKPEDTAVYYCNKAYRGVYYGYEYWGQGTQVTVSS | high polyreactivity |
| QVQLVESGGGLVQAGCSLRLTCAASGFTFYKYAMGWYRQAPGKERELVAAISRRGTSTYYADAVKGRFTISRDNAKNTVYLQMNSLKPEDTAVYYCNRDVSLSAFDYWGQGTQVTVSS | high polyreactivity |
| QVQLVESGGGLVQAGCSLRLTCAASGSIFRTNAMGWSRQAPGKERELVAAITGSGGSTYYADSVKGRFTISRDNAKNTVYLQMNSLKPEDTAVYYCAAEFGSFVSPYNYYFWGLGTQVTVSS | low polyreactivity |
| QVQLVESGGGLVQAGCSLRLTCPASGSIIKLYAMGWYRQAPGKEREMVAAITSVGSTYYADSVKGRFTISRDNAKNTVYFQMKSLKPEDTAVYYCAASVYYLYFHAKYDYWGQGTLVTVSS | low polyreactivity |
| QVQLVESGGGLVQAGCSLSISCAASGSTFFRYAMGLYRQAPGKERELVAAISKSGASTYYADSVKGSFTISRDNAKNTVYLQMNRLKPEDTAVYYCNADVKKSSAREWQYCYDYWGQGTQVTVSS | low polyreactivity |
| QVQLVESGGGLVQAGDSLRLSCAASGIILLSYAMGWYRQAPGKERELVAAITSGGGTNYADSVKGRFTISRDNAKNTVYLQMNSLKPEDTAVYYCAVGAYAGLYYYWGQGTQVTVSS | low polyreactivity |

| Sequence | polyreactivity (PSR sort gate) |
| --- | --- |
| QVQLVESGGGLVQAGGCLRISFAASGLTFVWYGMGWYRPATGKERELVAAITSVRTTYYADSVKGRFTISRDNAKNSVYLQMTSLKAEDSGFYYCAAQWAGYGDLPWPYSVIVEFYYWGQGSQVTVSS | low polyreactivity |
| QVQLVESGGGLVQAGGCLRLSCAASGFIFYVNAMGWYRLAPGKERELVAAISSSGTRTYYADSVKGRFTISRDNAKNTVYLQMNSLKPEDTAVYYCNAAQSVELGYDYWGQGTQVTVSS | high polyreactivity |
| QVQLVESGGGLVQAGGCLRLSCAASGVIFTRNVMGWYRQAPGKERELVAAISSGGRTYYADSVKGRFTISRDNAKNTVYLQMNSLKQEDTAVYYCNAGNRGVYRYDYWGQGTQVTVSS | high polyreactivity |
| QVQLVESGGGLVQAGGCLRLSCAASGYIFRVYDMGWYRQAPGKERELVAAISGSGGRTYYADSVKGRFTISRDNAKNTVYLQMISLKPEDTAVYDCSAYRVSEYDYWGQGTQVTVSS | high polyreactivity |
| QVQLVESGGGLVQAGGCLRLSCAASVRTFYYYAMGWYRQAPGKEMELVAAITSTGGSTYYADSVKGRFTISRDNAKNTVYLQMNSLKPEDTAVYYCNTDPYTTQWYTTWFEYWGQGTQVTVSS | low polyreactivity |
| QVQLVESGGGLVQAGGILLLSCAASGFIFWYYTMGWYKQAPGKERELVAAINSGGSTNYPDSVKGRFTSSRDNAKNTVYLQMNSLKPEDTAVYYCAALVWYSGELFYYWGQGTQVTVSS | low polyreactivity |
| QVQLVESGGGLVQAGGILRISCAAYGSIFLAYVMGWYRQAPGKERELVAAISYRGGSTYYADSVKGRFTISRDNSKNTVYLQMNSLKPEDTAVYYCAAEHLWGLYNYWGQGTQVTVSS | low polyreactivity |
| QVQLVESGGGLVQAGGILRLSCAASGFIFGYYGMGWYRQAPGKERELVAAISRSGGGTFYAVSVKGRFTISRDNAKNTVYLQMNSLKPEDTAVYYCNAKYYRKSGLSGAYPYYYWGQGTQVTVSS | high polyreactivity |
| QVQLVESGGGLVQAGGILRLSCAASGFTFDFNAMGWYRQAPGKERELVAAISSGASTNYADSVKGRYTISRDNAKNTVYLQMNRVIPLDSEVYYCAVYFYGSSTRSYQARFDYWGQGTQVTVSS | high polyreactivity |
| QVQLVESGGGLVQAGGILRLSCAASGFTFSWYAMGWYRQAPGKERELVAAINADGGTTYYADSVKGRFTISRDNAKNTVYLQMNSLKPEDTAVYYCAAELSVDKYDYWGQGTQVTVSS | low polyreactivity |
| QVQLVESGGGLVQAGGILRLSCAASGFTLADNTMVWYRQSPGKERELVADITSGASTYYADSVKGRFTISRDNAKNTVYLQMNSLKPEDTAVYYCAALYYWRSGYDYWGQGTQVTVSS | low polyreactivity |
| QVQLVESGGGLVQAGGILRLSCAASGIILYINAMGWYRQAPGKERELVAAITSDGSTNYADSVKGRITISRDNAKYTVYLQMNSLKPEDTAVYYCAVDLPWGTGVSQYPESDYWGQGTQVTVSS | low polyreactivity |
| QVQLVESGGGLVQAGGILRLSCAASGRIFGYNAMGWYRQAPGKERELVAAIRQRAGSTNYADSVKGRFTISRDNSKNTVYLQMKSLKPEDTAVYYCAVDGNFFGEVRPYDYWGQGSQVTVSS | low polyreactivity |
| QVQLVESGGGLVQAGGILRLSCAASGRIFKTYAMGWYRQAPGKERELVAAITASGGRTYYADSVKGRFTISRDNAKNTVYLQMNSLKPEDTAVYYCAADSGNEYDYWGQGTQVTVSS | low polyreactivity |
| QVQLVESGGGLVQAGGILRLSCAASGRIFQPYAMGWYRQAPGKERELVAAISRGGTTYYADSVKGRFTISRDNAKNTVYLQMNSLKTEDTAVYYCAAPSYYRYDYWGQGTQVTVSS | high polyreactivity |
| QVQLVESGGGLVQAGGILRLSCAASGRTFGLYAMGRYRQAPGKERELVAAITRSDGGTNYADSVKGRFTISRDNAKNTVYLQMNSLKAEDTAVYYCAVDLGYVSHVSWYAYEYWGQGTQVTVSS | low polyreactivity |
| QVQLVESGGGLVQAGGILRLSCAASGRTFLYYAMGWYRQAPGKERELVAGITSGGSTNYADSVKGRFTISRDTAKNTDYLQMNSLKPEDTAVYYCAVDQGYYRTADVNYDYWGQGTQVTVSS | low polyreactivity |
| QVQLVESGGGLVQAGGILRLSCAASGSIFEYNAMGRYRKPPGKERELCASISWSGGSTYYADSVKGRYTISRDNAKNTVYLQMYSLKPEATAVYYCNVRKWSRWFRESYYWGQGTQVTVSS | high polyreactivity |
| QVQLVESGGGLVQAGGILRLSCAASGSIFGWYAMGWYRQAPGKERELVAGISWSGANTYYADSVKGRFTISRDNAKNTVYLQMNSLKPEDTAVYYCAAGPGRYYSRRYGYWGQGTQVTVSS | high polyreactivity |
| QVQLVESGGGLVQAGGILRLSCAASGSIFIYYAMVWYRQAPGKERELVAAISSSGGRTYYADSVKGRFTISRDNAKNTVYLQMNSLTPEDTAVYYCNAVGRRWYRDPARYNEYNYWGQGTQVTVSS | high polyreactivity |
| QVQLVESGGGLVQAGGILRLSCAASGSIFNRNAMGWYRQAPGKEREFVADISWSGGSTYYADSVKGRFTISRDNAKNTVYLQMNSLKPEDTAVYYCAAKSTGRWWRAGYVYWGQGTQVTVSS | high polyreactivity |
